Source: PMC10377191, “The Crystal Structure of the Hsp90-LA1011 Complex and the Mechanism by Which LA1011 May Improve the Prognosis of Alzheimer’s Disease” (Biomolecules, 2023)

Target: T1, yeast Hsp90 (yeast, UniProt P02829 1-709)
T1 construct: yeast Hsp90 as used in the ITC experiments; probably the full-length protein was used (surmise)
Test: ITC; 400 μM FKBP51 or FKBP51-Δ7He injected into 30 μM Hsp90; 20 mM Tris pH 7.5, 5 mM NaCl, 30 °C
Conditions: both partners purified

T1 sequence (P02829 whole entry): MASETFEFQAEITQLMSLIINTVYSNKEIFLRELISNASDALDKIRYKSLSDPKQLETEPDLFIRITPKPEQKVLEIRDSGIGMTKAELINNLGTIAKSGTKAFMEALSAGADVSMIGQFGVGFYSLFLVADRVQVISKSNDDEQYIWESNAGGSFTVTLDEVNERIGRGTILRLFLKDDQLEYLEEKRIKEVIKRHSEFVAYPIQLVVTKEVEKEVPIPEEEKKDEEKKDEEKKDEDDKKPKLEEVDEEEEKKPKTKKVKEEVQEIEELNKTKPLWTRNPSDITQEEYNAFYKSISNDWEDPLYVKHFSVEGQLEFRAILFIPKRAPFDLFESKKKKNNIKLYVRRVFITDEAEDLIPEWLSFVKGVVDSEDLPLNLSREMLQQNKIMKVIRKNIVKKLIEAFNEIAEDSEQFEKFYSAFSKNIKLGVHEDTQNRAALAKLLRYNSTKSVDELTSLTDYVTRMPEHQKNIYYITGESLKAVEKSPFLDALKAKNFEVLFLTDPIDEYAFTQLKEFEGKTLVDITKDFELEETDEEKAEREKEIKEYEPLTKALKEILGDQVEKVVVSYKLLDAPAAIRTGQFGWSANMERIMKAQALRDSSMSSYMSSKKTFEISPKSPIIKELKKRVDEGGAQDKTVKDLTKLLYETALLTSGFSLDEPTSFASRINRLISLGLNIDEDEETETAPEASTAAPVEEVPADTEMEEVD

Kd: 11.6 µM | stoichiometry N: 1.25 FKBP51-Δ7He per Hsp90
B1: FKBP51-Δ7He (lacking residues 401–457 of the extended 7th helix of the TPR domain) (domain or fragment, UniProt Q13451 1-400, looked up)
chain: MTTDEGAKNNEESPTATVAEQGEDITSKKDRGVLKIVKRVGNGEETPMIGDKVYVHYKGKLSNGKKFDSSHDRNEPFVFSLGKGQVIKAWDIGVATMKKGEICHLLCKPEYAYGSAGSLPKIPSNATLFFEIELLDFKGEDLFEDGGIIRRTKRKGEGYSNPNEGATVEIHLEGRCGGRMFDCRDVAFTVGEGEDHDIPIGIDKALEKMQREEQCILYLGPRYGFGEAGKPKFGIEPNAELIYEVTLKSFEKAKESWEMDTKEKLEQAAIVKEKGTVYFKGGKYMQAVIQYGKIVSWLEMEYGLSEKESKASESFLLAAFLNLAMCYLKLREYTKAVECCDKALGLDSANEKGLYRRGEAQLLMNEFESAKGDFEKVLEVNPQNKAARLQISMCQKKAKE
notes: FKBP51 lacking residues 401–457 (the helical extension of the 7th helix of the TPR domain), that is, ending at residue 400; also called FKBP51-Δ7He mutant; FKBP51 mutant lacking the helical extension; source: gift of constructs from D. Southworth
